Columns and labels:
Assay in all cases: purified protein
Conditions in all cases: 25 °C, 50 mM Hepes/NaOH pH 7.5, 0.5% v/v reduced Triton X-100
purified protein [1] = substrate: NCc1ccccc1
purified protein [2] = substrate: NCCC(=O)c1ccccc1N; format: biochemical, Homo sapiens
purified protein [3] = substrate: NCCc1ccc(O)cc1; format: biochemical, Homo sapiens
purified protein [4] = substrate: NCCc1ccccc1; format: biochemical, Homo sapiens
purified protein [5] = substrate: NCCc1c[nH]c2ccc(O)cc12

B1: Human MAOB (Homo sapiens) (protein)
chain: SNKCDVVVVGGGISGMAAAKLLHDSGLNVVVLEARDRVGGRTYTLRNQKVKYVDLGGSYVGPTQNRILRLAKELGLETYKVNEVERLIHHVKGKSYPFRGPFPPVWNPITYLDHNNFWRTMDDMGREIPSDAPWKAPLAEEWDNMTMKELLDKLCWTESAKQLATLFVNLCVTAETHEVSALWFLWYVKQCGGTTRIISTTNGGQERKFVGGSGQVSERIMDLLGDRVKLERPVIYIDQTRENVLVETLNHEMYEAKYVISAIPPTLGMKIHFNPPLPMMRNQMITRVPLGSVIKCIVYYKEPFWRKKDYCGTMIIDGEEAPVAYTLDDTKPEGNYAAIMGFILAHKARKLARLTKEERLKKLCELYAKVLGSLEALEPVHYEEKNWCEEQYSGGCYTTYFPPGILTQYGRVLRQPVDRIYFAGTETATHWSGYMEGAVEAGERAAREILHAMGKIPEDEIWQSEPESVDVPAQPITTTFLERHLPSVPGLLRLIGLTTIFSATALGFLAHKRGLLVRV
notes: recombinant, overexpressed and purified by published protocols
Km (purified protein [1]): 350 ± 100 µM | kcat (purified protein [1]): 0.738 ± 0.0833 s⁻¹ | kcat/Km (purified protein [1]): 2100 M⁻¹ s⁻¹ | Km (purified protein [2]): 52 ± 7 µM | kcat (purified protein [2]): 0.485 ± 0.0167 s⁻¹ | kcat/Km (purified protein [2]): 9300 M⁻¹ s⁻¹ | Km (purified protein [3]): 400 ± 110 µM | kcat (purified protein [3]): 0.742 ± 0.0833 s⁻¹ | kcat/Km (purified protein [3]): 1850 M⁻¹ s⁻¹ | Km (purified protein [4]): 11 ± 1 µM | kcat (purified protein [4]): 0.758 ± 0.0167 s⁻¹ | kcat/Km (purified protein [4]): 68900 M⁻¹ s⁻¹

B2: Human MAOA (Homo sapiens) (protein)
chain: MENQEKASIAGHMFDVVVIGGGISGLSAAKLLTEYGVSVLVLEARDRVGGRTYTIRNEHVDYVDVGGAYVGPTQNRILRLSKELGIETYKVNVSERLVQYVKGKTYPFRGAFPPVWNPIAYLDYNNLWRTIDNMGKEIPTDAPWEAQHADKWDKMTMKELIDKICWTKTARRFAYLFVNINVTSEPHEVSALWFLWYVKQCGGTTRIFSVTNGGQERKFVGGSGQVSERIMDLLGDQVKLNHPVTHVDQSSDNIIIETLNHEHYECKYVINAIPPTLTAKIHFRPELPAERNQLIQRLPMGAVIKCMMYYKEAFWKKKDYCGCMIIEDEDAPISITLDDTKPDGSLPAIMGFILARKADRLAKLHKEIRKKKICELYAKVLGSQEALHPVHYEEKNWCEEQYSGGCYTAYFPPGIMTQYGRVIRQPVGRIFFAGTETATKWSGYMEGAVEAGERAAREVLNGLGKVTEKDIWVQEPESKDVPAVEITHTFWERNLPSVSGLLKIIGFSTSVTALGFVLYKYKLLPRS
notes: as for B1
Km (purified protein [5]): 1800 ± 100 µM | kcat (purified protein [5]): 3.777 ± 0.075 s⁻¹ | kcat/Km (purified protein [5]): 2100 M⁻¹ s⁻¹ | Km (purified protein [2]): 200 ± 20 µM | kcat (purified protein [2]): 1.39 ± 0.0383 s⁻¹ | kcat/Km (purified protein [2]): 6920 M⁻¹ s⁻¹ | Km (purified protein [3]): 100 ± 20 µM | kcat (purified protein [3]): 1.53 ± 0.07 s⁻¹ | kcat/Km (purified protein [3]): 15300 M⁻¹ s⁻¹ | Km (purified protein [4]): 400 ± 100 µM | kcat (purified protein [4]): 0.803 ± 0.055 s⁻¹ | kcat/Km (purified protein [4]): 2010 M⁻¹ s⁻¹

Source: PMC11833248, “Evolutionary and Functional Analysis of Monoamine Oxidase F: A Novel Member of the Monoamine Oxidase Gene Family” (Genome Biology and Evolution, 2025)
